# Test results: patent publication US20110311550A1 (Scripps Research, published 2011)
# B1: N4 IgG (antibody, V domains shown)
# VH: VQLLEQSGPEVKKPGDSLRISCKMSGDSLVTTWIGWVRQKPGQGLEWMGIINPGDSSTNIYPGDSATRYGPSFQGQVTISIDKSTSTAYLQWNNVKASDTGIYYCARHVPVPISGTFLWREREMHDFGYFDDWGQGTLVIVSS
# VL: ELTLTQSPGTLSLSPGERATLSCRASQSVSNNYLAWYQQKPGQAPRLLIYGASSRATGIPDRFSGSGSGTGFTLIISRLEPEDFAVYYCQQYGSSSITFGQGTRLEIKR
# notes: also called IgG N4
# Legend:
# Assay in all cases: ELISA, lectin-captured E1E2 lysate, Ab 1 ug/ml
# [1] = molecular target: E1E2 complex (H77) with E1 mutation D263A (HCV genotype 1a, isolate H77, UniProt P27958 192-383; P27958 384-746)
# [2] = molecular target: E1E2 complex (H77) with E1 mutation S236A (HCV genotype 1a, isolate H77, UniProt P27958 192-383; P27958 384-746)
# [3] = molecular target: E1E2 complex (H77) with E1 mutation F291A (HCV genotype 1a, isolate H77, UniProt P27958 192-383; P27958 384-746)
# [4] = molecular target: E1E2 complex (H77) with E1 mutation R259A (HCV genotype 1a, isolate H77, UniProt P27958 192-383; P27958 384-746)
# [5] = molecular target: E1E2 complex (H77) with E1 mutation D206A (HCV genotype 1a, isolate H77, UniProt P27958 192-383; P27958 384-746)
# [6] = molecular target: E1E2 complex (H77) with E1 mutation N205A (HCV genotype 1a, isolate H77, UniProt P27958 192-383; P27958 384-746)
# [7] = molecular target: E1E2 complex (H77) with E1 mutation R296A (HCV genotype 1a, isolate H77, UniProt P27958 192-383; P27958 384-746)
# [8] = molecular target: E1E2 complex (H77) with E1 mutation Y201A (HCV genotype 1a, isolate H77, UniProt P27958 192-383; P27958 384-746)
# [9] = molecular target: E1E2 complex (H77) with E1 mutation D321A (HCV genotype 1a, isolate H77, UniProt P27958 192-383; P27958 384-746)
# [10] = molecular target: E1E2 complex (H77) with E1 mutation M318A (HCV genotype 1a, isolate H77, UniProt P27958 192-383; P27958 384-746)
# [11] = molecular target: E1E2 complex (H77) with E1 mutation T204A (HCV genotype 1a, isolate H77, UniProt P27958 192-383; P27958 384-746)
# [12] = molecular target: E1E2 complex (H77) with E2 mutation R639A (HCV genotype 1a, isolate H77, UniProt P27958 192-383; P27958 384-746)
# [13] = molecular target: E1E2 complex (H77) with E2 mutation G634A (HCV genotype 1a, isolate H77, UniProt P27958 192-383; P27958 384-746)
# [14] = molecular target: E1E2 complex (H77) with E2 mutation T621A (HCV genotype 1a, isolate H77, UniProt P27958 192-383; P27958 384-746)
# [15] = molecular target: E1E2 complex (H77) with E2 mutation P619A (HCV genotype 1a, isolate H77, UniProt P27958 192-383; P27958 384-746)
# [16] = molecular target: E1E2 complex (H77) with E2 mutation Y618A (HCV genotype 1a, isolate H77, UniProt P27958 192-383; P27958 384-746)
# [17] = molecular target: E1E2 complex (H77) with E2 mutation R614A (HCV genotype 1a, isolate H77, UniProt P27958 192-383; P27958 384-746)
# [18] = molecular target: E1E2 complex (H77) with E2 mutation H638A (HCV genotype 1a, isolate H77, UniProt P27958 192-383; P27958 384-746)
# [19] = molecular target: E1E2 complex (H77) with E2 mutation T425A (HCV genotype 1a, isolate H77, UniProt P27958 192-383; P27958 384-746)
# [20] = molecular target: E1E2 complex (H77) with E2 mutation L427A (HCV genotype 1a, isolate H77, UniProt P27958 192-383; P27958 384-746)
# [21] = molecular target: E1E2 complex (H77) with E2 mutation Y443A (HCV genotype 1a, isolate H77, UniProt P27958 192-383; P27958 384-746)
# [22] = molecular target: E1E2 complex (H77) with E2 mutation G635A (HCV genotype 1a, isolate H77, UniProt P27958 192-383; P27958 384-746)
binder,measurement,setting,value
B1,Binding relative to wt (%),[1],85%
same,Binding relative to wt (%),[2],81%
same,Binding relative to wt (%),[3],131%
same,Binding relative to wt (%),[4],102%
same,Binding relative to wt (%),[5],17%
same,Binding relative to wt (%),[6],3%
same,Binding relative to wt (%),[7],138%
same,Binding relative to wt (%),[8],7%
same,Binding relative to wt (%),[9],92%
same,Binding relative to wt (%),[10],92%
same,Binding relative to wt (%),[11],24%
same,Binding relative to wt (%),[12],114%
same,Binding relative to wt (%),[13],117%
same,Binding relative to wt (%),[14],34%
same,Binding relative to wt (%),[15],41%
same,Binding relative to wt (%),[16],33%
same,Binding relative to wt (%),[17],16%
same,Binding relative to wt (%),[18],12%
same,Binding relative to wt (%),[19],100%
same,Binding relative to wt (%),[20],125%
same,Binding relative to wt (%),[21],5%
same,Binding relative to wt (%),[22],80%
